The source of these data is patent US20180148718, “COMPOUNDS AND METHODS FOR INCREASING ANTISENSE ACTIVITY” (Ionis Pharmaceuticals, Inc., published 2018).

The series has as its target Hsp90alpha (UniProt P07900 P07900:2-732). The series can be described thus: filter; nitrocellulose double-filter binding, printed as binding constant. The following applies: label: 5' biotin-TEG, radiolabel. As to the method:
The protein-bound ASOs were transferred to a nitrocellulose membrane and the signal intensity was determined. As a control, no significant binding was found for a PS/DNA ASO. The specific binding of protein-bound ASO to the nitrocellulose membrane was confirmed using a double-filter binding assay for PS/cEt and PS/LNA ASOs. The unbound ASOs were attracted using a Hybond-N+Nylon membrane under the Hybond ECL nitrocellulose membrane.

B1: Isis 586184 (PS/LNA) (XNA)
DNA: CTGCTAGCCTCTGGATTTGA
modifications: 5-10-5 gapmer, LNA wings 1-5 and 16-20, 2'-deoxy gap, all C 5mC, full PS
As to B1, the dissociation constant Kd was 17.7 nM.
